According to patent US9605283B2, “Microorganism modified for the production of 1,3-propanediol” (INSTITUT NATIONAL DES SCIENCES APPLIQUÉES, priority 2012, dated 2017):
Numbering of substitutions follows the chain as printed. Numbers in names are those of the source.

B1: Ec-Mdh: (L)-malate dehydrogenase of Escherichia coli, wild-type, SEQ ID No. 124 (protein, listed as Escherichia coli)
chain: MKVAVLGAAGGIGQALALLLKTQLPSGSELSLYDIAPVTPGVAVDLSHIPTAVKIKGFSGEDATPALEGADVVLISAGVARKPGMDRSDLFNVNAGIVKNLVQQVAKTCPKACIGIITNPVNTTVAIAAEVLKKAGVYDKNKLFGVTTLDIIRSNTFVAELKGKQPGEVEVPVIGGHSGVTILPLLSQVPGVSFTEQEVADLTKRIQNAGTEVVEAKAGGGSATLSMGQAAARFGLSLVRALQGEQGVVECAYVEGDGQYARFFSQPLLLGKNGVEERKSIGTLSAFEQNALEGMLDTLKKDIALGEEFVNK
B2: Ec-MdhR81A M85E I12V: E. coli malate dehydrogenase mutant R81A M85E I12V, SEQ ID No. 166 (protein, listed as Escherichia coli)
chain: B1 chain with I12V, R81A, M85E
B3: Ec-MdhR81A M85Q I12V: E. coli malate dehydrogenase mutant R81A M85Q I12V, SEQ ID No. 164 (protein, listed as Escherichia coli)
chain: B1 chain with I12V, R81A, M85Q
B4: Ec-MdhR81A I12V: E. coli malate dehydrogenase mutant R81A I12V, SEQ ID No. 162 (protein, listed as Escherichia coli)
chain: B1 chain with I12V, R81A
B5: Ec-MdhR81A M85E: E. coli malate dehydrogenase mutant R81A M85E, SEQ ID No 160 (protein, listed as Escherichia coli)
chain: B1 chain with R81A, M85E
B6: Ec-MdhR81A: E. coli malate dehydrogenase mutant R81A, SEQ ID No. 156 (protein, listed as Escherichia coli)
chain: B1 chain with R81A
B7: Ec-MdhR81A G179D: E. coli malate dehydrogenase mutant R81A G179D, SEQ ID No. 168 (protein, listed as Escherichia coli)
chain: B1 chain with R81A, G179D
B8: Ec-MdhR81A M85Q: E. coli malate dehydrogenase mutant R81A M85Q, SEQ ID No. 158 (protein, listed as Escherichia coli)
chain: B1 chain with R81A, M85Q
B9: Ec-MdhR81A D86S: E. coli malate dehydrogenase mutant R81A D86S, SEQ ID No. 170 (protein, listed as Escherichia coli)
chain: B1 chain with R81A, D86S
B10: Ec-MdhR81A D865 G179D: E. coli malate dehydrogenase mutant R81A D86S G179D (printed D865), SEQ ID No 172 (protein, listed as Escherichia coli)
chain: B1 chain with R81A, D86S, G179D
B11: Sc-Pdc1: pyruvate decarboxylase of Saccharomyces cerevisiae, SEQ ID No. 208 (protein, listed as Saccharomyces cerevisiae)
chain: MSEITLGKYLFERLKQVNVNTVFGLPGDFNLSLLDKIYEVEGMRWAGNANELNAAYAADGYARIKGMSCIITTFGVGELSALNGIAGSYAEHVGVLHVVGVPSISAQAKQLLLHHTLGNGDFTVFHRMSANISETTAMITDIATAPAEIDRCIRTTYVTQRPVYLGLPANLVDLNVPAKLLQTPIDMSLKPNDAESEKEVIDTILALVKDAKNPVILADACCSRHDVKAETKKLIDLTQFPAFVTPMGKGSIDEQHPRYGGVYVGTLSKPEVKEAVESADLILSVGALLSDFNTGSFSYSYKTKNIVEFHSDHMKIRNATFPGVQMKFVLQKLLTTIADAAKGYKPVAVPARTPANAAVPASTPLKQEWMWNQLGNFLQEGDVVIAETGTSAFGINQTTFPNNTYGISQVLWGSIGFTTGATLGAAFAAEEIDPKKRVILFIGDGSLQLTVQEISTMIRWGLKPYLFVLNNDGYTIEKLIHGPKAQYNEIQGWDHLSLLPTFGAKDYETHRVATTGEWDKLTQDKSFNDNSKIRMIEIMLPVFDAPQNLVEQAKLTAATNAKQ
B12: Bs-MdhR87C: B. subtilis malate dehydrogenase mutant R87C, SEQ ID No. 154 (protein, listed as Bacillus subtilis)
chain: MGNTRKKVSVIGAGFTGATTAFLIAQKELADVVLVDIPQLENPTKGKALDMLEASPVQGFDAKITGTSNYEDTAGSDIVVITAGIACKPGMSRDDLVSTNEKIMRSVTQEIVKYSPDSIIVVLTNPVDAMTYAVYKESGFPKERVIGQSGVLDTARFRTFVAEELNLSVKDVTGFVLGGHGDDMVPLVRYSYAGGIPLETLIPKERIDAIVERTRKGGGEIVNLLGNGSAYYAPAASLTEMVEAILKDQRRVLPTIAYLEGEYGYEGIYLGVPTIVGGNGLEQIIELELTDYERAQLNKSVESVKNVMKVLS
B13: Zm-Pdc: pyruvate decarboxylase of Zymomonas mobilis, SEQ ID No. 128 (protein, listed as Zymomonas mobilis)
chain: MSYTVGTYLAERLVQIGLKHHFAVAGDYNLVLLDNLLLNKNMEQVYCCNELNCGFSAEGYARAKGAAAAVVTYSVGALSAFDAIGGAYAENLPVILISGAPNNNDHAAGHVLHHALGKTDYHYQLEMAKNITAAAEAIYTPEEAPAKIDHVIKTALREKKPVYLEIACNIASMPCAAPGPASALFNDEASDEASLNAAVEETLKFIANRDKVAVLVGSKLRAAGAEEAAVKFADALGGAVATMAAAKSFFPEENPHYIGTSWGEVSYPGVEKTMKEADAVIALAPVFNDYSTTGWTDIPDPKKLVLAEPRSVVVNGIRFPSVHLKDYLTRLAQKVSKKTGALDFFKSLNAGELKKAAPADPSAPLVNAEIARQVEALLTPNTTVIAETGDSWFNAQRMKLPNGARVEYEMQWGHIGWSVPAAFGYAVGAPERRNILMVGDGSFQLTAQEVAQMVRLKLPVIIFLINNYGYTIEVMIHDGPYNNIKNWDYAGLMEVFNGNGGYDSGAGKGLKAKTGGELAEAIKVALANTDGPTLIECFIGREDCTEELVKWGKRVAAANSRKPVNKLL
B14: Zm-Pdc W392Q: Z. mobilis pyruvate decarboxylase mutant W392Q, SEQ ID No. 190 (protein, listed as Zymomonas mobilis)
chain: B13 chain with W392Q

How the values were obtained:
Format in all cases: biochemical
[1] = DHB dehydrogenase activity of cytosolic enzymes (DHB-dependent reduction of NAD+)
Method: Activity of the cytosolic DHB dehydrogenases (Ec-Mdh, Bs-Mdh, Ll-LdhA) was assayed by following the DHB-dependent reduction of NAD^+.
The reaction mixture contained 60 mM Hepes (pH 8), 50 mM potassium chloride, 5 mM MgCl2, 10 mM NAD, (optionally, 5 mM fructose-1,6-bisphosphate (F16bP)) (all products from Sigma), and appropriate amounts of purified enzyme or cell extract. Reactions were started by adding 50 mM (L)-2,4-dihydroxybutyrate (Rhodia).
All enzymatic assays were carried out at 37° C. in 96-well flat bottomed microtiter plates in a final volume of 250 μL. The reactions were followed by the characteristic absorption of NADH at 340 nm (εNADH=6.22 mM^−1 cm^−1) or the absorbtion of DCIP at 655 nm (εDCIP=5.9 mM^−1 cm^−1) in a microplate reader (BioRad 680XR).

[2] = Malate dehydrogenase activity (natural substrate); details: for Max. specific activity, malate: activity measured at 50 mM malate
[3] = OHB decarboxylase activity (coupled to YqhD, NADPH); details: for OHB decarboxylase activity (in words): wild-type enzymes
Method: OHB decarboxylase activity was assayed by coupling the decarboxylase activity to the NADPH-dependent reduction of the released 3-hydroxypropanal by purified aldehyde reductase, YqhD, from E. coli. The decarboxylation of pyruvate was coupled to the NADH-dependent reduction of acetaldehyde catalysed by yeast alcohol dehydrogenase. Branched-chain alpha-ketoacid decarboxylase activity was measured on 4-methyl-2-oxovaleric acid by coupling to the NADH-dependent reduction of 3-methylbutanal catalysed by horse liver alcohol dehydrogenase. […] Reactions were started by adding 20 mM 2-oxo-4-hydroxybutyrate (OHB), 10 mM 4-methyl-2-oxovaleric acid (MOV), or 5 mM pyruvate.

[4] = Pyruvate decarboxylase activity (coupled to yeast alcohol dehydrogenase)
Method: OHB decarboxylase activity was assayed by coupling the decarboxylase activity to the NADPH-dependent reduction of the released 3-hydroxypropanal by purified aldehyde reductase, YqhD, from E. coli. The decarboxylation of pyruvate was coupled to the NADH-dependent reduction of acetaldehyde catalysed by yeast alcohol dehydrogenase. Branched-chain alpha-ketoacid decarboxylase activity was measured on 4-methyl-2-oxovaleric acid by coupling to the NADH-dependent reduction of 3-methylbutanal catalysed by horse liver alcohol dehydrogenase. […]

[5] = activity measured at 50 mM DHB, Table 4
[6] = when not saturated, activity estimated at 20 mM substrate, Table 8
[7] = natural substrate pyruvate, Table 8

Molecule	Max. specific activity, DHB [1, 5] [µmol/mg/min]	Max. specific activity, malate ([2]; Table 4) [µmol/mg/min]	other results
B1			DHB dehydrogenase activity (in words) ([1]; cytosolic wild-type enzymes): no measurable DHB dehydrogenase activity; Max. specific activity, DHB ([1]; when not saturated, activity estimated at 50 mM substrate, Table 2): 0 µmol/mg/min; Max. specific activity, Natural substrate ([2]; natural substrate (L)-malate, Table 2): 52.5 µmol/mg/min
B2	10.3	0.91	
B3	7.1	0.98	
B4	2.5	0.66	
B5	2.38	0.65	
B6	0.3	0.12	
B7	2.1	0.52	
B8	2.98	0.57	
B9	0.79	0.42	
B10	2.51	0.64	Km ([1]; ns = not saturated at concentrations of up to 100 mM, Table 4): 25 mM; Km ([2]; read-out: Km, malate, Table 4): 4 mM
B11			Max. specific activity, OHB [3, 6]: 0.055 µmol/mg/min; OHB decarboxylase activity (in words) [3]: significant OHB decarboxylase activity; Max. specific activity, Natural substrate [4, 7]: 1.3 µmol/mg/min
B12	0.06	0.13	maximum activity on DHB ([1]; text of Example 2): 0.06 µmol/mg/min; activity on malate ([2]; text of Example 2): 0.13 µmol/mg/min
B13			Max. specific activity, OHB [3, 6]: 0.052 µmol/mg/min; OHB decarboxylase activity (in words) [3]: significant OHB decarboxylase activity; Max. specific activity, Natural substrate [4, 7]: 65 µmol/mg/min
B14			Max. specific activity, OHB ([3]; activity measured at 20 mM OHB, Table 10): 0.19 µmol/mg/min; Effect of mutation on activity and/or specificity for OHB (in words) ([3]; versus wild-type enzyme): increased activity and/or specificity for OHB; Max. specific activity, Natural substrate ([4]; activity measured at 50 mM pyruvate (Pdc mutants), Table 10): 1.39 µmol/mg/min
